Assay results published in patent publication US20170159020A1.

How the values were obtained:
α6β1 integrin [1] = biological target: α6β1 integrin (UniProt P23229); assay: solid-phase integrin binding assay: 511E8 coated on plate, 10 nM α6β1 integrin, A490
α6β1 integrin [2] = biological target: α6β1 integrin (UniProt P23229); assay: solid-phase integrin binding assay: 521E8 coated on plate, 10 nM α6β1 integrin, A490

Chain of UniProt P23229 (P23229 other isoform, or with tags, fused parts or gaps limits assumed, chain 1 of 2): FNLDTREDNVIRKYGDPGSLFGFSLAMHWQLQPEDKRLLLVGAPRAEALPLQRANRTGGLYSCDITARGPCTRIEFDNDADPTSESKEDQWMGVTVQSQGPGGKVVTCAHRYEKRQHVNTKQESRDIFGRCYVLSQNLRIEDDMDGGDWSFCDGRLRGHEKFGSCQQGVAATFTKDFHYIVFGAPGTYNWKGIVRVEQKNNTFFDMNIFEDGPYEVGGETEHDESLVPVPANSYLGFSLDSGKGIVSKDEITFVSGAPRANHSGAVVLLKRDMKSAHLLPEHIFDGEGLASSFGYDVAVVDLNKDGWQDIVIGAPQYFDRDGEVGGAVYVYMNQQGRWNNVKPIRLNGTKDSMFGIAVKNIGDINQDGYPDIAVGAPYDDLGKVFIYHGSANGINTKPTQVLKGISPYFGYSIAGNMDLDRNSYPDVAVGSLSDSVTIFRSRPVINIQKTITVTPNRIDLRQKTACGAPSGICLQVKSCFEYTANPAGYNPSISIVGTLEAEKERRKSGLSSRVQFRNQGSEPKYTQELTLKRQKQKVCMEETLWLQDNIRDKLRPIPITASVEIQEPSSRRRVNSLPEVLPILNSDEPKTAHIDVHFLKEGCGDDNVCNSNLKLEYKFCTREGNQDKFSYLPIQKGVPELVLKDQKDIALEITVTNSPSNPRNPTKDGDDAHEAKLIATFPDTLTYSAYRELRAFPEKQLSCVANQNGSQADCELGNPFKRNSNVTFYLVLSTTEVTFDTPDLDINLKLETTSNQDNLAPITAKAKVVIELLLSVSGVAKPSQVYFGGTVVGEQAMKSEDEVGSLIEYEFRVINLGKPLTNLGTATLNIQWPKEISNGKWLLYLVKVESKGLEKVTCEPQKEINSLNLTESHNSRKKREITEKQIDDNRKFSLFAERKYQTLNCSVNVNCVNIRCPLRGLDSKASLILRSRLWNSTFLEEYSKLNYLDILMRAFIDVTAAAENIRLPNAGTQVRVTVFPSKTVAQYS
Chain of UniProt P23229 (P05556 21-728 limits assumed, chain 2 of 2, further chain): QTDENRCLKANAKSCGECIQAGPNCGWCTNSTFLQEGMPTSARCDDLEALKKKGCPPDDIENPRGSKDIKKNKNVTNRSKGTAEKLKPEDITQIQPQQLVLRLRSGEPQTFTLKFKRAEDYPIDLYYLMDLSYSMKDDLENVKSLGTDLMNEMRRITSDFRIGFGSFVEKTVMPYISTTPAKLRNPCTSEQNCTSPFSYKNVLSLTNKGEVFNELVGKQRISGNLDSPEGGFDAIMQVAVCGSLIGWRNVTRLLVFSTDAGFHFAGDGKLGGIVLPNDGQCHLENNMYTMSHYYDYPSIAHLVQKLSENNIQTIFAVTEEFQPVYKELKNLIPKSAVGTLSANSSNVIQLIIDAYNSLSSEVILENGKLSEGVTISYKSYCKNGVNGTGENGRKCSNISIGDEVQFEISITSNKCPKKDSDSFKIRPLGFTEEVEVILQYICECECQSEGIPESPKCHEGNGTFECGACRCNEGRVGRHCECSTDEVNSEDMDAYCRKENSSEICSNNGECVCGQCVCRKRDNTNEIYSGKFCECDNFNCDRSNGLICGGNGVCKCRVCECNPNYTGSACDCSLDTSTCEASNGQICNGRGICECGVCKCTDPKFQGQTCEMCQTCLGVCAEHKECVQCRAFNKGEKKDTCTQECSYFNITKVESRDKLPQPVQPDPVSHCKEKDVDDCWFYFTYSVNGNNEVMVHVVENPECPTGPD

| fold increase in integrin binding activity by addition of gelatin (500 µg/mL by context) to the coating solution, against 511E8 coated alone, at 2.7 nM 511E8 (α6β1 integrin [1]) [fold] | increase in integrin binding activity by addition of 50 µg/mL HSA to the coating solution, against 511E8 coated alone (α6β1 integrin [1]) [%] | increase in integrin binding activity by addition of 50 µg/mL gelatin to the coating solution, against 511E8 coated alone (α6β1 integrin [1]) [%] | increase in integrin binding activity by addition of HSA (500 µg/mL by context) to the coating solution, against 511E8 coated alone, at 2.7 nM 511E8 (α6β1 integrin [1]) [%] | increase in integrin binding activity by addition of 50 µg/mL HSA to the coating solution, against 521E8 coated alone (α6β1 integrin [2]) [%] | increase in integrin binding activity by addition of 50 µg/mL gelatin to the coating solution, against 521E8 coated alone (α6β1 integrin [2]) [%] | increase in integrin binding activity by addition of 500 µg/mL HSA to the coating solution, against 521E8 coated alone, at 2.7 nM 521E8 (α6β1 integrin [2]) [%] | increase in integrin binding activity by addition of gelatin (500 µg/mL by context) to the coating solution, against 521E8 coated alone, at 2.7 nM 521E8 (α6β1 integrin [2]) [%] | Substance |
| --- | --- | --- | --- | --- | --- | --- | --- | --- |
| > 2 | 10 | 20 to 60 | > 80 | – | – | – | – | Human recombinant laminin 511E8 (from UniProt O15230 2534-3327; P07942 1561-1786; P11047 1362-1608) (ligand) |
| – | – | – | – | 10 to 20 | 10 to 60 | > 60 | > 80 | Human recombinant laminin 521E8 (from UniProt O15230 2534-3327; P55268 1573-1798; P11047 1362-1608) (ligand) |
